Reference: patent publication US20200397865A1 (ACCELERON PHARMA, published 2020)

T1: ALK4-Fc:ActRIIB-Fc heterodimer (human, UniProt P36896 24-126; Q13705 20-134)
T1 construct: also called ALK4-Fc:ActRIIB-Fc heterodimeric complex; ALK4:ActRIIB heterodimer; not shown: linker and engineered Fc
T1 sequence 1: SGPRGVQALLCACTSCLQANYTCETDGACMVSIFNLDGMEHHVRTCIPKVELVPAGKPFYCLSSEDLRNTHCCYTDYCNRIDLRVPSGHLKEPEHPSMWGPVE
T1 sequence 2: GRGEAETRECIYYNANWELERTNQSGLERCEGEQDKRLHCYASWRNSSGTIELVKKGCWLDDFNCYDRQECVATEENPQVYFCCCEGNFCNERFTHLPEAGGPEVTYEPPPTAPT

B1: ActRIIB-Fc homodimer (Fc fusion, UniProt Q13705 20-134, looked up)
chain: T1 sequence 2
notes: also called ActRIIB-Fc:ActRIIB-Fc homodimer; ActRIIB homodimer; not shown: linker and Fc
B2: BMP10 (ligand, UniProt O95393 317-424, looked up)
chain: NAKGNYCKRTPLYIDFKEIGWDSWIIAPPGYEAYECRGVCNYPLAEHLTPTKHAIIQALVHLKNSQKASKACCVPTKLEPISILYLDKGVVTYKFKYEGMAVSECGCR
B3: activin B (ligand, UniProt P09529 293-407, looked up)
chain: GLECDGRTNLCCRQQFFIDFRLIGWNDWIIAPTGYYGNYCEGSCPAYLAGVPGSASSFHTAVVNQYRMRGLNPGTVNSCCIPTKLSTMSMLYFDDEYNIVKRDVPNMIVEECGCA
B4: GDF3 (ligand, UniProt Q9NR23 251-364, looked up)
chain: AAIPVPKLSCKNLCHRHQLFINFRDLGWHKWIIAPKGFMANYCHGECPFSLTISLNSSNYAFMQALMHAVDPEIPQAVCIPTKLSPISMLYQDNNDNVILRHYEDMVVDECGCG
B5: BMP9 (ligand, UniProt Q9UK05 320-429, looked up)
chain: SAGAGSHCQKTSLRVNFEDIGWDSWIIAPKEYEAYECKGGCFFPLADDVTPTKHAIVQTLVHLKFPTKVGKACCVPTKLSPISVLYKDDMGVPTLKYHYEGMSVAECGCR
notes: also called GDF2
B6: GDF11 (ligand, UniProt O95390 299-407, looked up)
chain: NLGLDCDEHSSESRCCRYPLTVDFEAFGWDWIIAPKRYKANYCSGQCEYMFMQKYPHTHLVQQANPRGSAGPCCTPTKMSPINMLYFNDKQQIIYGKIPGMVVDRCGCS
notes: also called BMP11
B7: BMP6 (ligand, UniProt P22004 382-513, looked up)
chain: QQSRNRSTQSQDVARVSSASDYNSSELKTACRKHELYVSFQDLGWQDWIIAPKGYAANYCDGECSFPLNAHMNATNHAIVQTLVHLMNPEYVPKPCCAPTKLNAISVLYFDDNSNVILKKYRNMVVRACGCH
B8: activin A (ligand, UniProt P08476 311-426, looked up)
chain: GLECDGKVNICCKKQFFVSFKDIGWNDWIIAPSGYHANYCEGECPSHIAGTSGSSLSFHSTVINHYRMRGHSPFANLKSCCVPTKLRPMSMLYYDDGQNIIKKDIQNMIVEECGCS
notes: also called ActA

Columns and labels:
Test in all cases: SPR (Biacore), Fc protein captured by anti-Fc antibody, ligand injected
[1] = target: B8
Protocol: (§1) A Biacore™-based binding assay was used to compare ligand binding selectivity of the ALK4-Fc:ActRIIB-Fc heterodimeric complex described above with that of ActRIIB-Fc and ALK4-Fc homodimer complexes. The ALK4-Fc:ActRIIB-Fc heterodimer, ActRIIB-Fc homodimer, and ALK4-Fc homodimer were independently captured onto the system using an anti-Fc antibody. Ligands were injected and allowed to flow over the captured receptor protein. Results are summarized in the table below, in which ligand off-rates (kd) most indicative of effective ligand traps are denoted in bold font.

[2] = target: B3
Protocol: as §1

[3] = target: B7
Protocol: as §1

[4] = target: B1
Protocol: as §1

[5] = target: T1, ALK4-Fc:ActRIIB-Fc heterodimer
Protocol: as §1

Row | Kd [4] | koff [4] | kon [4] | Kd [5] | koff [5] | kon [5] | Binder | other results
1 |  |  |  |  |  |  | B1 | Kd [1]: 0.019 nM; koff [1]: 0.00023 s⁻¹; kon [1]: 1.2e+07 M⁻¹ s⁻¹; Kd [2]: 0.02 nM; koff [2]: 0.0001 s⁻¹; kon [2]: 5.1e+06 M⁻¹ s⁻¹; Kd [3]: 0.19 nM; koff [3]: 0.0068 s⁻¹; kon [3]: 3.2e+07 M⁻¹ s⁻¹
2 | 0.011 nM | 0.00026 s⁻¹ | 2.3e+07 M⁻¹ s⁻¹ | 0.074 nM | 0.0041 s⁻¹ | 5.6e+07 M⁻¹ s⁻¹ | B2 | 
3 |  |  |  | 0.006 nM | 4e-05 s⁻¹ | 7.1e+06 M⁻¹ s⁻¹ | B3 | 
4 | 1.5 nM | 0.0022 s⁻¹ | 1.4e+06 M⁻¹ s⁻¹ | 4.9 nM | 0.017 s⁻¹ | 3.4e+06 M⁻¹ s⁻¹ | B4 | 
5 | 0.077 nM | 0.0011 s⁻¹ | 1.4e+07 M⁻¹ s⁻¹ | 3.4 nM |  |  | B5 | 
6 | 0.002 nM | 0.00011 s⁻¹ | 5e+07 M⁻¹ s⁻¹ | 0.003 nM | 0.00011 s⁻¹ | 3.8e+07 M⁻¹ s⁻¹ | B6 | 
7 |  |  |  | 2.7 nM | 0.0055 s⁻¹ | 2e+06 M⁻¹ s⁻¹ | B7 | 
8 |  |  |  | 0.012 nM | 0.00015 s⁻¹ | 1.3e+07 M⁻¹ s⁻¹ | B8 | 
